Experimental data published in patent US20260167699A1 (Chugai, published 2026).
Where a chain is given by its changes, count along the chain named. Each block holds one binder with its values, some of them ahead of it.

Columns and labels:
Assay in all cases: SPR, relative to GpH7-A5/GpH7-B3/GpL16-k0 =100
FcγRIIb = target: T1, FcγRIIb (human, UniProt P31994 43-217)
T1 construct: extracellular domain; also called 2b
T1 sequence: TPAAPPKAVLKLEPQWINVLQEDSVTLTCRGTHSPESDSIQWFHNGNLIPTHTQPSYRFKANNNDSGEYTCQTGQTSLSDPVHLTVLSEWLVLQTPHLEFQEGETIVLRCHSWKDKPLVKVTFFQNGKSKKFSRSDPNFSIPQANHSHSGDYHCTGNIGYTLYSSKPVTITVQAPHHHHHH

FcγRIa = target: T2, FcγRIa (human, UniProt P12314 16-292)
T2 construct: extracellular domain; also called 1a
T2 sequence (P12314 other isoform, or with tags, fused parts or gaps): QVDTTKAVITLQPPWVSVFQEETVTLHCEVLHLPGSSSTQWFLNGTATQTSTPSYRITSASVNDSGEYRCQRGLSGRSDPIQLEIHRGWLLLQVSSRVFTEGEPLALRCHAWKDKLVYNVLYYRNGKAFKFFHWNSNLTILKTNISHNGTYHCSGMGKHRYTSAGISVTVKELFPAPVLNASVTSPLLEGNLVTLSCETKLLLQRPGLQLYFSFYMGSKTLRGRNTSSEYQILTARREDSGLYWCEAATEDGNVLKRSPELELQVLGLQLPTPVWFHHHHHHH

FcγRIIa(H) = target: T3, FcγRIIa(H) (human, UniProt P12318 34-217)
T3 construct: extracellular domain; also called 2aH
T3 sequence: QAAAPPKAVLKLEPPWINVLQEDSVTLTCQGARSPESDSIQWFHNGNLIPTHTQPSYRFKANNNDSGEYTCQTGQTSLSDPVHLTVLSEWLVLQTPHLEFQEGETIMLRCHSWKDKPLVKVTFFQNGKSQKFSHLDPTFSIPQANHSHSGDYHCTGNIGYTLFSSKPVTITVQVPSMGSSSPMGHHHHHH

FcγRIIa(R) = target: T4, FcγRIIa(R) (human, UniProt P12318 34-217)
T4 construct: extracellular domain; also called 2aR
T4 sequence: T3 sequence with H134R

He/Con 2b (FcγRIIb): 83.5%
He/Con 1a (FcγRIa): 101%
He/Con 2aH (FcγRIIa(H)): 86.9%
He/Con 2aR (FcγRIIa(R)): 93.7%
B1: GpH7-A5/GpH7-B3 variant Y296_08L/GpL16-k0 (antibody, human IgG1, kappa)
heavy 1: not shown
heavy 2: not shown
light: DIVMTQSPLSLPVTPGEPASISCQASESLVHSNRNTYLHWYLQKPGQSPQLLIYKVSNRFSGVPDRFSGSGSGTDFTLKISRVEAEDVGVYYCSQNTHVPPTFGQGTKVEIERTVAAPSVFIFPPSDEQLKSGTASVVCLLNNFYPREAKVQWKVDNALQSGNSQESVTEQDSKDSTYSLSSTLTLSKADYEKHKVYACEVTHQGLSSPVTKSFNRGEC
notes: He Ab: heterodimerized IgG1, one H chain mutated

He/Con 2b (FcγRIIb): 73.8%
He/Con 1a (FcγRIa): 102%
He/Con 2aH (FcγRIIa(H)): 83.7%
He/Con 2aR (FcγRIIa(R)): 90.3%
B2: GpH7-A5/GpH7-B3 variant Y296_11K/GpL16-k0 (antibody, human IgG1, kappa)
heavy 1: not shown
heavy 2: not shown
light: B1 light
notes: as for B1

He/Con 2b (FcγRIIb): 106%
He/Con 1a (FcγRIa): 102%
He/Con 2aH (FcγRIIa(H)): 103%
He/Con 2aR (FcγRIIa(R)): 103%
B3: GpH7-A5/GpH7-B3 variant Y300_04F/GpL16-k0 (antibody, human IgG1, kappa)
heavy 1: not shown
heavy 2: not shown
light: B1 light
notes: as for B1

He/Con 2b (FcγRIIb): 115%
He/Con 1a (FcγRIa): 107%
He/Con 2aH (FcγRIIa(H)): 114%
He/Con 2aR (FcγRIIa(R)): 107%
B4: GpH7-A5/GpH7-B3 variant S324_15Y/GpL16-k0 (antibody, human IgG1, kappa)
heavy 1: not shown
heavy 2: not shown
light: B1 light
notes: as for B1

He/Con 2b (FcγRIIb): 90.5%
He/Con 1a (FcγRIa): 106%
He/Con 2aH (FcγRIIa(H)): 104%
He/Con 2aR (FcγRIIa(R)): 92.9%
B5: GpH7-A5/GpH7-B3 variant Y300_02A/GpL16-k0 (antibody, human IgG1, kappa)
heavy 1: not shown
heavy 2: not shown
light: B1 light
notes: as for B1

He/Con 2b (FcγRIIb): 96.1%
He/Con 1a (FcγRIa): 107%
He/Con 2aH (FcγRIIa(H)): 120%
He/Con 2aR (FcγRIIa(R)): 96.9%
B6: GpH7-A5/GpH7-B3 variant Y300_08L/GpL16-k0 (antibody, human IgG1, kappa)
heavy 1: not shown
heavy 2: not shown
light: B1 light
notes: as for B1

He/Con 2b (FcγRIIb): 87.2%
He/Con 1a (FcγRIa): 106%
He/Con 2aH (FcγRIIa(H)): 106%
He/Con 2aR (FcγRIIa(R)): 86.8%
B7: GpH7-A5/GpH7-B3 variant S324_19Q/GpL16-k0 (antibody, human IgG1, kappa)
heavy 1: not shown
heavy 2: not shown
light: B1 light
notes: as for B1

He/Con 2b (FcγRIIb): 100%
He/Con 1a (FcγRIa): 103%
He/Con 2aH (FcγRIIa(H)): 102%
He/Con 2aR (FcγRIIa(R)): 101%
B8: GpH7-A5/GpH7-B3 variant Y296_09D/GpL16-k0 (antibody, human IgG1, kappa)
heavy 1: not shown
heavy 2: not shown
light: B1 light
notes: as for B1

He/Con 2b (FcγRIIb): 117%
He/Con 1a (FcγRIa): 97.3%
He/Con 2aH (FcγRIIa(H)): 106%
He/Con 2aR (FcγRIIa(R)): 110%
B9: GpH7-A5/GpH7-B3 variant S324_08L/GpL16-k0 (antibody, human IgG1, kappa)
heavy 1: not shown
heavy 2: not shown
light: B1 light
notes: as for B1

He/Con 2b (FcγRIIb): 99.4%
He/Con 1a (FcγRIa): 102%
He/Con 2aH (FcγRIIa(H)): 94%
He/Con 2aR (FcγRIIa(R)): 98.2%
B10: GpH7-A5/GpH7-B3 variant Y296_10E/GpL16-k0 (antibody, human IgG1, kappa)
heavy 1: not shown
heavy 2: not shown
light: B1 light
notes: as for B1

He/Con 2b (FcγRIIb): 109%
He/Con 1a (FcγRIa): 106%
He/Con 2aH (FcγRIIa(H)): 113%
He/Con 2aR (FcγRIIa(R)): 105%
B11: GpH7-A5/GpH7-B3 variant S324_16H/GpL16-k0 (antibody, human IgG1, kappa)
heavy 1: not shown
heavy 2: not shown
light: B1 light
notes: as for B1

He/Con 2b (FcγRIIb): 110%
He/Con 1a (FcγRIa): 106%
He/Con 2aH (FcγRIIa(H)): 116%
He/Con 2aR (FcγRIIa(R)): 105%
B12: GpH7-A5/GpH7-B3 variant Y300_06M/GpL16-k0 (antibody, human IgG1, kappa)
heavy 1: not shown
heavy 2: not shown
light: B1 light
notes: as for B1

He/Con 2b (FcγRIIb): 89.4%
He/Con 1a (FcγRIa): 102%
He/Con 2aH (FcγRIIa(H)): 97.2%
He/Con 2aR (FcγRIIa(R)): 98.6%
B13: GpH7-A5/GpH7-B3 variant Y296_14T/GpL16-k0 (antibody, human IgG1, kappa)
heavy 1: not shown
heavy 2: not shown
light: B1 light
notes: as for B1

He/Con 2b (FcγRIIb): 125%
He/Con 1a (FcγRIa): 96.2%
He/Con 2aH (FcγRIIa(H)): 107%
He/Con 2aR (FcγRIIa(R)): 109%
B14: GpH7-A5/GpH7-B3 variant S324_07I/GpL16-k0 (antibody, human IgG1, kappa)
heavy 1: not shown
heavy 2: not shown
light: B1 light
notes: as for B1

He/Con 2b (FcγRIIb): 82.4%
He/Con 1a (FcγRIa): 95.9%
He/Con 2aH (FcγRIIa(H)): 107%
He/Con 2aR (FcγRIIa(R)): 84%
B15: GpH7-A5/GpH7-B3 variant S324_12R/GpL16-k0 (antibody, human IgG1, kappa)
heavy 1: not shown
heavy 2: not shown
light: B1 light
notes: as for B1

He/Con 2b (FcγRIIb): 97.4%
He/Con 1a (FcγRIa): 102%
He/Con 2aH (FcγRIIa(H)): 120%
He/Con 2aR (FcγRIIa(R)): 90.9%
B16: GpH7-A5/GpH7-B3 variant Y300_07I/GpL16-k0 (antibody, human IgG1, kappa)
heavy 1: not shown
heavy 2: not shown
light: B1 light
notes: as for B1

He/Con 2b (FcγRIIb): 92.8%
He/Con 1a (FcγRIa): 102%
He/Con 2aH (FcγRIIa(H)): 101%
He/Con 2aR (FcγRIIa(R)): 99.6%
B17: GpH7-A5/GpH7-B3 variant Y296_18N/GpL16-k0 (antibody, human IgG1, kappa)
heavy 1: not shown
heavy 2: not shown
light: B1 light
notes: as for B1

He/Con 2b (FcγRIIb): 83.1%
He/Con 1a (FcγRIa): 99.8%
He/Con 2aH (FcγRIIa(H)): 89.1%
He/Con 2aR (FcγRIIa(R)): 93%
B18: GpH7-A5/GpH7-B3 variant Y296_02A/GpL16-k0 (antibody, human IgG1, kappa)
heavy 1: not shown
heavy 2: not shown
light: B1 light
notes: as for B1
